Experimental data taken from US20220098261A1 (Harvard, published 2022).

Key:
EPO receptor on cells = target: T1, EPO receptor on cells (human, UniProt P19235 25-508); assay: cell-based or functional assay
T1 sequence (looked up): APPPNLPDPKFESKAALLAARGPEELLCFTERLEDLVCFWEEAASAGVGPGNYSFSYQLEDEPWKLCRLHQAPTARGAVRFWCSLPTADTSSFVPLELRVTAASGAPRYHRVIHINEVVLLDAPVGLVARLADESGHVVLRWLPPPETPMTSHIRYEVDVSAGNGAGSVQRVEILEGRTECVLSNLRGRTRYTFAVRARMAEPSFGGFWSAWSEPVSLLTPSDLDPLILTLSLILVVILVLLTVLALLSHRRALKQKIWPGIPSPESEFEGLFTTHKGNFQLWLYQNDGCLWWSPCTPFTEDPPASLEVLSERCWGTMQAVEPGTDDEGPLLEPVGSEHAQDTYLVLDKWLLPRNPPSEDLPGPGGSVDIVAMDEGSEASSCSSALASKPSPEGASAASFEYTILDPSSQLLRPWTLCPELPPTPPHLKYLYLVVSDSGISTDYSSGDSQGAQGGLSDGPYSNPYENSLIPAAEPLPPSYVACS

human glycophorin A [1] = target: T2, human glycophorin A (human, UniProt P02724 20-150); assay: column 'Binding strength' of Table 1, format nanobody; method not stated
T2 construct: Native protein on human red blood cells (and TF-1 cells); also called GYPA; huGYPA
T2 sequence: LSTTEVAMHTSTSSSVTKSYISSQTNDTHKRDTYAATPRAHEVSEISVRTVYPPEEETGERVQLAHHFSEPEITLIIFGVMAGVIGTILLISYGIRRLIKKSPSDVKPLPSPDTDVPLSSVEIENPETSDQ

human glycophorin A [2] = target: T2, human glycophorin A; assay: column 'Binding strength' of Table 1, format scFv; method not stated

Darbepoetin (Amgen) (ligand) was tested, and the TF-1 cell proliferation, EC50 relative to epoetin alpha (EPO receptor on cells) was 14.7 fold.

B1: IH4v1 nanobody (VHH)
VHH: QVQLQESGGGSVQAGGSLRLSCVASGYTDSTYCVGWFRQAPGKEREGVARINTISGRPWYADSVKGRFTISQDNSKNTVYLQMNSLKPEDTAIYYCTLTTANSRGFCSGGYNYKGQGTQVTVS
notes: Camelid single-domain antibody with the added Thr118
B1 was tested, and the Kd (human glycophorin A [1]) was 30 nM.

B2: 1C3 scFv (scFv)
scFv: EVRLLESGGGPVQPGGSLKLSCAASGFDFSRYWMNWVRRAPGKGLEWIGEINQQSSTINYSPPLKDKFIISRDNAKSTLYLQMNKVRSEDTALYYCARLSLTAAGFAYWGQGTLVTVSAGGGSSGGSGSSGGSSSGGDIVMSQSPSSLAVSVGEKVSMSCKSSQSLFNSRTRKNYLTWYQQKPGQSPKPLIYWASTRESGVPDRFTGSGSGTDFTLTISSVQAEDLADYYCKQSYNLRTFGGGTKLEIK
For B2, the Kd (human glycophorin A [2]) was 30 nM.
